Here are results for 3 substances from patent publication US6333178.

Test [1] has as its target DNA polymerase I (Escherichia coli) (UniProt P00582).
Test [2] addresses DNA polymerase II (Escherichia coli) (UniProt P21189).
The target in test [3] is DNA polymerase III holoenzyme.
The target of test [4] is MBP-UmuC fusion protein (maltose binding protein fused to UmuC, DNA polymerase V) (Escherichia coli).

In the case of “SSB (single stranded DNA-binding protein) (from UniProt P0AGE0)”, the Cro- mutation frequency after gap-filling replication by pol I with UmuD', RecA, SSB (Cro- mutation frequency per gene) in test [1] worked out at 0.00078. Besides, the Cro- mutation frequency after gap-filling replication by pol II with UmuD', RecA, SSB (Cro- mutation frequency per gene) in test [2] was 0.00065. The substance also gave a Cro- mutation frequency after gap-filling replication by pol III holoenzyme with UmuD', RecA, SSB (Cro- mutation frequency per gene) in test [3] of 0.00081. In test [4], this substance returned a Cro- mutation frequency after in vitro gap-filling replication, SSB omitted (Cro- mutation frequency per gene) of 0.00051.
UmuD' (from UniProt P0AG11): the Cro- mutation frequency after gap-filling replication by pol I with UmuD', RecA, SSB (Cro- mutation frequency per gene) in test [1] stood at 0.00078. Besides, the Cro- mutation frequency after gap-filling replication by pol II with UmuD', RecA, SSB (Cro- mutation frequency per gene) in test [2] was found to be 0.00065. Further, the Cro- mutation frequency after gap-filling replication by pol III holoenzyme with UmuD', RecA, SSB (Cro- mutation frequency per gene) in test [3] came to 0.00081. Besides, the Cro- mutation frequency after in vitro gap-filling replication, UmuD' omitted (Cro- mutation frequency per gene) in test [4] stood at 0.00027.
Turning to RecA (from UniProt P0A7G6), in test [1], the Cro- mutation frequency after gap-filling replication by pol I with UmuD', RecA, SSB (Cro- mutation frequency per gene) amounted to 0.00078. In test [2], the Cro- mutation frequency after gap-filling replication by pol II with UmuD', RecA, SSB (Cro- mutation frequency per gene) turned out to be 0.00065. Further, the Cro- mutation frequency after gap-filling replication by pol III holoenzyme with UmuD', RecA, SSB (Cro- mutation frequency per gene) in test [3] was 0.00081. Besides, the Cro- mutation frequency after in vitro gap-filling replication, RecA omitted (Cro- mutation frequency per gene) in test [4] was 0.00025.
